B1: 17S U2 SnRNP complex component HTATSF1 (Homo sapiens), O43719 (parent)
chain: MSGTNLDGNDEFDEQLRMQELYGDGKDGDTQTDAGGEPDSLGQQPTDTPYEWDLDKKAWFPKITEDFIATYQANYGFSNDGASSSTANVEDVHARTAEEPPQEKAPEPTDARKKGEKRKAESGWFHVEEDRNTNVYVSGLPPDITVDEFIQLMSKFGIIMRDPQTEEFKVKLYKDNQGNLKGDGLCCYLKRESVELALKLLDEDEIRGYKLHVEVAKFQLKGEYDASKKKKKCKDYKKKLSMQQKQLDWRPERRAGPSRMRHERVVIIKNMFHPMDFEDDPLVLNEIREDLRVECSKFGQIRKLLLFDRHPDGVASVSFRDPEEADYCIQTLDGRWFGGRQITAQAWDGTTDYQVEETSREREERLRGWEAFLNAPEANRGLRRSDSVSASERAGPSRARHFSEHPSTSKMNAQETATGMAFEEPIDEKKFEKTEDGGEFEEGASENNAKESSPEKEAEEGCPEKESEEGCPKRGFEGSCSQKESEEGNPVRGSEEDSPKKESKKKTLKNDCEENGLAKESEDDLNKESEEEVGPTKESEEDDSEKESDEDCSEKQSEDGSEREFEENGLEKDLDEEGSEKELHENVLDKELEENDSENSEFEDDGSEKVLDEEGSEREFDEDSDEKEEEEDTYEKVFDDESDEKEDEEYADEKGLEAADKKAEEGDADEKLFEESDDKEDEDADGKEVEDADEKLFEDDDSNEKLFDEEEDSSEKLFDDSDERGTLGGFGSVEEGPLSTGSSFILSSDDDDDDI

Variants of: B1
Conditions: with SF3B1, O75533-1
SF3B1, O75533-1, sequence (O75533 whole entry): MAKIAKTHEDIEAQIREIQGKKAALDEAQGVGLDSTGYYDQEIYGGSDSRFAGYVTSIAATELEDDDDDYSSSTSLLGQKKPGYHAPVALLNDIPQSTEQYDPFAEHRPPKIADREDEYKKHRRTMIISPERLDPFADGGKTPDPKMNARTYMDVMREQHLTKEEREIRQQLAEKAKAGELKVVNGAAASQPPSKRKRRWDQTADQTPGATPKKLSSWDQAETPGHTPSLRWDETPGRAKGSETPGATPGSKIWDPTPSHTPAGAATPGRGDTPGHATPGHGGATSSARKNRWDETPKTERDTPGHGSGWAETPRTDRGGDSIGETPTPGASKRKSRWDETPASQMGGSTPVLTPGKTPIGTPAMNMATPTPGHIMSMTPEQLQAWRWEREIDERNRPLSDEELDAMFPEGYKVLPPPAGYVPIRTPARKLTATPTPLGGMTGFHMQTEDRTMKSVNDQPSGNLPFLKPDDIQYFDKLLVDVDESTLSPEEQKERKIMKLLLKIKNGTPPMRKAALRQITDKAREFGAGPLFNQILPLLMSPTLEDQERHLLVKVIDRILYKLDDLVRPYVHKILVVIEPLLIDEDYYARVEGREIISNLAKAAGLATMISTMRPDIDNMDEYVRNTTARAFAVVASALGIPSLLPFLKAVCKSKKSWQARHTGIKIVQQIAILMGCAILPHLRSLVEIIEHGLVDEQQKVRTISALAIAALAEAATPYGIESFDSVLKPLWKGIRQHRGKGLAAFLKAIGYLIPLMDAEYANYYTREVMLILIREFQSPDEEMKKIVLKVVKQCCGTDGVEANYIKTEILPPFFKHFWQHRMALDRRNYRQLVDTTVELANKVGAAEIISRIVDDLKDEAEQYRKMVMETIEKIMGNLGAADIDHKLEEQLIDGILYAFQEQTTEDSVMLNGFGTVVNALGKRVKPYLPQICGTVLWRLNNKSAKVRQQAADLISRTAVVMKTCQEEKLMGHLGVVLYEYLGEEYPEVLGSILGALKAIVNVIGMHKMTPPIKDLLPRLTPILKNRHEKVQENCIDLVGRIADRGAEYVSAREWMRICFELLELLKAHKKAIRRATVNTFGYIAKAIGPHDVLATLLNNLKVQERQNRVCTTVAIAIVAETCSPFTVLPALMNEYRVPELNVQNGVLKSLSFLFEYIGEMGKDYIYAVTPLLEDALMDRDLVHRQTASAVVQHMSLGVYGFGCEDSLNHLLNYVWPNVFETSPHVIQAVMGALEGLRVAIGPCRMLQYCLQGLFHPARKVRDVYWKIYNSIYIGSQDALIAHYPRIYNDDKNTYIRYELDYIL

**Q.** For E286K;D290K, which “effect of a mutation on the interaction” value is on record?
**A.** Its value is “disrupting interaction strength”.

**Q.** For E286K;F337A, which “effect of a mutation on the interaction” value is on record?
**A.** The value was “disrupting interaction strength”.
